{"source": "patent US20250276081A1", "about": "“Mucin-Active Proteases and Methods of Use” (priority 2022, published 2025)", "key": {"[1]": {"target": "T1, cell surface CD43 (K562, CCRF-CEM, CCRF-HSB-2 cells) (Homo sapiens, UniProt P16150)", "T1 construct": "endogenous in cells; host or cells: K562, CCRF-CEM, CCRF-HSB-2", "T1 sequence (P16150 20-400)": "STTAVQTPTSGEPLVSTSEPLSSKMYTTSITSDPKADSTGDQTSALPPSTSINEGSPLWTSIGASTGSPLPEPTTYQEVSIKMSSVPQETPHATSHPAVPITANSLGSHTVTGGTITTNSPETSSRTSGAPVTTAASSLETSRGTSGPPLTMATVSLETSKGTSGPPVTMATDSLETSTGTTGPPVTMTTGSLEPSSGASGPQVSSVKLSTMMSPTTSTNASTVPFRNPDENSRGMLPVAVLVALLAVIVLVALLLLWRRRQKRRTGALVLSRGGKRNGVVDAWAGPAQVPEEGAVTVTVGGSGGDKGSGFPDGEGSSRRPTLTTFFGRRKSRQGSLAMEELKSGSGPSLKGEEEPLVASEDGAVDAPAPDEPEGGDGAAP", "assay": "CD43 flow cytometry of leukemia cell lines", "assay_type": "cell-based", "settings": "50 nM StcE, 1 h", "experimental": "CD43 and Siglec-7-Fc flow cytometry. 1×10^6 K562, CCRF-CEM, or CCRF-HSB-2 cells growing in log phase were harvested, resuspended in 1 mL of serum-free RPMI, and treated with either vehicle or 50 nM StcE for 1 h. Cells were subsequently spun down at 600× g and washed twice in PBS. Cells were then resuspended in FACS buffer (0.5% BSA in PBS) at 1×10^6 cells/mL and aliquoted into a V-bottom 96-well plate (Corning) at 1×10^5 cells/well. For staining, a precomplex solution of 1 μg/mL Siglec-7-Fc (R&D Systems) and 1 μg/mL Alexa Fluor 488-antihFc was made up in FACS buffer and incubated on ice for 1 h. Alexa Fluor 647 CD43/sialophorin antibody (MEM-59 clone) (Novus Biologicals) was subsequently added to the precomplex solution prior to staining. Cells were stained in 100 μL of staining solution for 30 min, washed twice with FACS buffer, and analyzed by flow cytometry using a BD Accuri C6 plus."}, "[2]": {"tested_on": "mucins in plasma and tissues", "assay": "In vivo mucin degradation Western blot after StcE", "parameters": "species or system mouse", "settings": "0.25 mg/kg"}, "[3]": {"tested_on": "leukemia cell lines (K562, CCRF-CEM, CCRF-HSB-2)", "assay": "NK cell killing assay with mucinase-treated leukemia cell lines", "assay_type": "cell-based, human", "experimental": "NK cell isolation. PBMC aliquots were quickly thawed and diluted in 10 mL of RPMI containing DNAase to break up cell aggregates. Cells were incubated at 5% CO2, 37° C. for 30 min and subsequently counted in duplicate. Cells were then spun down at 600× g and resuspended in RPMI to a final cell concentration of 50×10^6 cells/mL. Isolation of NK cells was performed according to manufacturer's instructions using an NK cell magnetic isolation kit (Stem Cell Technologies). NK cells were cultured for at least 24 h before conducting experiments. For killing experiments, NK cells were cultured for 24 h in complete media containing 0.2-0.5 μg/mL IL-2 (BioLegend).\nNK cell killing assays. Target cells were harvested by centrifugation and resuspended in serum-free RPMI containing 5 μM Cell Tracker Far Red (Thermo Fisher Scientific) at 5×10^5 cells/mL. Cells were then incubated for 30 min at 37° C.; where indicated, cells were treated with […] StcE. Following staining and StcE treatment, cells were spun down, washed twice with PBS containing 1 mM EDTA, and resuspended in complete media. Cells were diluted to 1×10^5 cells/mL in complete media containing 100 nM Sytox Green, and 100 μL of cell suspension was aliquoted into a flat bottom 96-well plate. Separately, NK cells were diluted to various cell concentrations to generate the indicated effector: target ratios in complete media containing 100 nM Sytox Green. Where indicated, these cell suspensions were treated with 20 nM StcE for 30 min, washed twice with PBS containing 1 mM ETDA, and resuspended in complete media containing 100 nM Sytox Green. 100 μL of these cell suspensions was then mixed with the target cell suspensions to generate a total volume of 200 μL. Cells were incubated at 37° C. for 4 h and analyzed by flow cytometry."}, "[4]": {"target": "T2, cell surface mucins (CD43) on mixed K562^±HER2 cells (Homo sapiens, UniProt P16150)", "T2 construct": "endogenous in cells; host or cells: K562 and K562^HER2 (HER2 retrovirally transduced; CD43 endogenous)", "T2 sequence (P16150 20-400)": "T1 sequence (P16150 20-400)", "assay": "K562 mixed cell CD43 cleavage assay", "assay_type": "cell-based", "settings": "1 nM, overnight", "experimental": "K562 mixed cell CD43 cleavage assay. 2.5×10^5 K562 and K562^HER2 cells were allocated per well to a 96-well ultra-low attachment round bottom plate in 150 μL of complete media. 50 μL of mucinases in PBS were added to wells and the plate was incubated (overnight unless stated otherwise) at 37° C. Cells were washed twice with cold FACS buffer with 2 mM EDTA, once with cold FACS buffer, and stained with Alexa Fluor 488 anti-human CD340 (erbB2/HER-2) antibody (24D2 clone) (BioLegend) and Alexa Fluor 647 CD43/sialophorin antibody (MEM^−59 clone) (Novus Biologicals) in FACS buffer supplemented with 0.1% benzonase on ice protected from light. Cells were washed three times with cold FACS buffer with 2 mM EDTA and stained with 1 μM Sytox AADvanced (Thermo Fisher Scientific) or 1 μM Sytox Blue in FACS buffer with 2 mM EDTA for 5 min on ice prior to analysis using a BD Accuri C6 plus or MACSQuant Analyzer 10 Flow Cytometer (Miltenyi Biotec). Samples were compensated using single-stained controls in FlowJo v. 10.0. Unstained and PBS-treated samples were used to define 0% and 100% cell surface CD43, respectively, and each sample was normalized to percent CD43 within each replicate. Using GraphPad Prism 9, replicates were fitted to inhibitor concentration vs normalized response."}, "[5]": {"assay": "In vivo toxicity of StcE (maximum tolerated dose, necropsy)", "parameters": "species or system mouse", "experimental": "In vivo toxicity studies. 10-week-old C57BL/6 mice (bred in-house) were injected with PBS or StcE (0.15 mg/kg or 15 mg/kg) via intravenous injection. 9-week-old female BALB/cJ mice (Jackson Labs) were injected with PBS or 10 mg/kg αHER2-eStcE via intraperitoneal injection. Mice were submitted to the Animal Diagnostic Lab at Stanford University for necropsy and complete blood count (CBC) analyses 3 h post injection."}}}
{"substance": "StcE: secreted protease of C1 esterase inhibitor, zinc metalloprotease pan mucinase from E. coli O157:H7; SEQ ID NO:1", "values": [{"measurement": "Cell surface CD43 level", "setting": "[1]", "value": "loss of cell surface CD43"}, {"measurement": "Digestion of mucins in plasma and tissues", "setting": "[2]", "value": "digested mucins throughout the body"}, {"measurement": "NK cell killing after StcE treatment of the NK cells", "setting": "[3]; NK cells treated with StcE", "value": "no effect relative to untreated control"}, {"measurement": "NK cell killing of StcE-treated leukemia cells", "setting": "[3]; target cells treated with StcE, 4 h with NK cells", "value": "increased NK cell surveillance"}, {"measurement": "Cytotoxicity of StcE treatment of leukemia cell lines", "setting": "[3]; without NK cells, n=3", "value": "statistically significant baseline toxicity increase"}, {"measurement": "Removal of cell surface mucins on HER2- cells", "setting": "[4]", "value": "complete removal"}, {"measurement": "Removal of cell surface mucins on HER2^+ cells", "setting": "[4]", "value": "complete removal"}, {"measurement": "Necropsy and CBC findings", "setting": "[5]; 3 hours post injection of 15 mg/kg StcE I.V.", "value": "hemorrhages underneath the skull, ecchymoses throughout the gastrointestinal tract, neutrophil accumulation in the lungs, and platelet depletion"}, {"measurement": "Maximum tolerated dose", "setting": "[5]; Balb/c and C57BL/6 mice", "value": 0.25, "unit": "mg/kg"}, {"measurement": "Toxicity above the maximum tolerated dose", "setting": "[5]; doses higher than 0.25 mg/kg", "value": "systemic toxicity"}]}
